From doi:10.1101/2025.03.12.642038, “Structural, biophysical and biological analysis and characterisation of IRF4 DNA-binding domain mutations associated with multiple myeloma”

Tests used:
Experiment in all cases: SPR two-state kinetic; FP: PBS + 0.05% Tween20, 5 nM DNA, 1 h, room temperature; SPR: Biacore S200, SA chip, protein 0.1-4500 nM, running buffer not given in material; errors are SD
Details in all cases: protein: recombinant; tags: N-terminal His8-linker-His8-TEV, cleaved; label: 3' biotin; hairpin, TTTT loop
IRF4 DBD K59N = target: T1, IRF4 DBD K59N (Homo sapiens, UniProt Q15306 20-132, K59N)
T1 sequence: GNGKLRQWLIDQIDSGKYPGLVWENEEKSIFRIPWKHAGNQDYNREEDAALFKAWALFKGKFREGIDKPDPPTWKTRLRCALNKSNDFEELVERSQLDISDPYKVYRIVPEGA

IRF4 DBD K59R = target: T2, IRF4 DBD K59R (Homo sapiens, UniProt Q15306 20-132, K59R)
T2 sequence: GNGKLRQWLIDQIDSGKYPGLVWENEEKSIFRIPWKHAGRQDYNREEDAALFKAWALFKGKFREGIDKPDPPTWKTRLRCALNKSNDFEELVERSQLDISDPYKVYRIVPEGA

IRF4 DBD T95A = target: T3, IRF4 DBD T95A (Homo sapiens, UniProt Q15306 20-132, T95A)
T3 sequence: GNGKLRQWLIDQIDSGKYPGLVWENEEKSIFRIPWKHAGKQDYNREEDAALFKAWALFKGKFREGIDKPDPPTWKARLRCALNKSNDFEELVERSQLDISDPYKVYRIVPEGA

IRF4 DBD C99R = target: T4, IRF4 DBD C99R (Homo sapiens, UniProt Q15306 20-132, C99R)
T4 sequence: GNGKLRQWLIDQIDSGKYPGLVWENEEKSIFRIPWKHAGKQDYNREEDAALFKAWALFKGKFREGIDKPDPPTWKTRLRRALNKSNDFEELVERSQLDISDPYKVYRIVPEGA

IRF4 DBD K123R = target: T5, IRF4 DBD K123R (Homo sapiens, UniProt Q15306 20-132, K123R)
T5 sequence: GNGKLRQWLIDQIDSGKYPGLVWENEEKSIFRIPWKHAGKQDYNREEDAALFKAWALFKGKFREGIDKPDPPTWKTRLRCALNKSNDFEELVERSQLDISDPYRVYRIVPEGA

IRF4 DBD S114R = target: T6, IRF4 DBD S114R (Homo sapiens, UniProt Q15306 20-132, S114R)
T6 sequence: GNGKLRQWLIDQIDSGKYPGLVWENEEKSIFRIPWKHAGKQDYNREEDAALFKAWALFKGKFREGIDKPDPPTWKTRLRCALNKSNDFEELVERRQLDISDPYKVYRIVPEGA

IRF4 DBD wild-type = target: T7, IRF4 DBD wild-type (Homo sapiens, UniProt Q15306 20-132)
T7 sequence: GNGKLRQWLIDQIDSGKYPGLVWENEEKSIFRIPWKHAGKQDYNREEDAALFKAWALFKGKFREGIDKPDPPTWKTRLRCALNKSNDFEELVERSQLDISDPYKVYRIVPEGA

IRF4 DBD T95K = target: T8, IRF4 DBD T95K (Homo sapiens, UniProt Q15306 20-132, T95K)
T8 sequence: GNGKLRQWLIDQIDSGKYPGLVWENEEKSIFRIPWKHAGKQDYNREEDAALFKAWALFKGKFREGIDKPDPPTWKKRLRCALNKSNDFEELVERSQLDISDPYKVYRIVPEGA

IRF4 DBD D117A = target: T9, IRF4 DBD D117A (Homo sapiens, UniProt Q15306 20-132, D117A)
T9 sequence: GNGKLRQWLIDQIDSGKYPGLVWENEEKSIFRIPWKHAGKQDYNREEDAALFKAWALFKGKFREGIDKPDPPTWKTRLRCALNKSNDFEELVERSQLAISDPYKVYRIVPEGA

IRF4 DBD S114N = target: T10, IRF4 DBD S114N (Homo sapiens, UniProt Q15306 20-132, S114N)
T10 sequence: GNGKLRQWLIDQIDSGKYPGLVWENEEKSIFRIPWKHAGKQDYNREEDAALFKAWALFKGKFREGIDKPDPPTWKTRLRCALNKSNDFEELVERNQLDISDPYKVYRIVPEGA

For CTTGGTTTCACTTCCTGCGTTTTCGCAGGAAGTGAAACCAAG (structured_DNA) [IRE hairpin (biotin)], the Kd (IRF4 DBD K59N) was 107 ± 133 nM, the Kd (IRF4 DBD K59R) was 460 ± 429 nM and the Kd (IRF4 DBD T95A) was 305 ± 174 nM. It also gave a Kd (IRF4 DBD C99R) of 660 ± 317 nM, a Kd (IRF4 DBD K123R) of 1110 ± 341 nM and a Kd (IRF4 DBD S114R) of 49 ± 26 nM. For the same binder, the Kd (IRF4 DBD wild-type) was 187 ± 143 nM, the Kd (IRF4 DBD T95K) was 913 ± 147 nM and the Kd (IRF4 DBD D117A) was 293 ± 213 nM. The Kd (IRF4 DBD S114N) was 145 ± 151 nM.
